For eleven molecules, EC50 and IC50 results are on record in US20210024646A1 (published 2021).

In general, EC50 refers to the concentration needed to bring the measured effect to its halfway point. For orientation: IC50 means the midpoint of a concentration-inhibition curve.

Experiment [1] deals with T1, extracellular domain of human CD73 protein (CD73-ECD), C-terminus polyhistidine-tagged (UniProt P21589 27-547).
T1 chain: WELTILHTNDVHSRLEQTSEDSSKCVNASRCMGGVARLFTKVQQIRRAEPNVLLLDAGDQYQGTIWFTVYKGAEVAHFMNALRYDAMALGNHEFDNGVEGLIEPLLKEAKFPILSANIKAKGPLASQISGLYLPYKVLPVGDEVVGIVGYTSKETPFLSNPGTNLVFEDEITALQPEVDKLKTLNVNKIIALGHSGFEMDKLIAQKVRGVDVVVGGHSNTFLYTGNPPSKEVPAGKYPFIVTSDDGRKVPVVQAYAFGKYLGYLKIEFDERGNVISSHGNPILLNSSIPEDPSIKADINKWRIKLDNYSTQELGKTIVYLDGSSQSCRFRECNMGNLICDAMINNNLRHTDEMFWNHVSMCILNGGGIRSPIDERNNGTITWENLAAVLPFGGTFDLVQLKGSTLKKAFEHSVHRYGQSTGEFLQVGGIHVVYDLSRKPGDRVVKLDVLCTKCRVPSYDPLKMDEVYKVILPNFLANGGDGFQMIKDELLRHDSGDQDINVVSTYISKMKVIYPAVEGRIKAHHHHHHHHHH
In words: ELISA. A general note: ELISA stands for enzyme-linked immunosorbent assay.

Experiment [2] concerns the target T1, extracellular domain of human CD73 …. The experiment in a line: enzyme inhibition; right table.
For experiment [3], the target named is T2, Carbon-terminal polyhistidine-labeled recombinant cynomolgus monkey CD73 enzyme (cynomolgus monkey, UniProt A0A2K5V5U7 1-547).
T2 chain: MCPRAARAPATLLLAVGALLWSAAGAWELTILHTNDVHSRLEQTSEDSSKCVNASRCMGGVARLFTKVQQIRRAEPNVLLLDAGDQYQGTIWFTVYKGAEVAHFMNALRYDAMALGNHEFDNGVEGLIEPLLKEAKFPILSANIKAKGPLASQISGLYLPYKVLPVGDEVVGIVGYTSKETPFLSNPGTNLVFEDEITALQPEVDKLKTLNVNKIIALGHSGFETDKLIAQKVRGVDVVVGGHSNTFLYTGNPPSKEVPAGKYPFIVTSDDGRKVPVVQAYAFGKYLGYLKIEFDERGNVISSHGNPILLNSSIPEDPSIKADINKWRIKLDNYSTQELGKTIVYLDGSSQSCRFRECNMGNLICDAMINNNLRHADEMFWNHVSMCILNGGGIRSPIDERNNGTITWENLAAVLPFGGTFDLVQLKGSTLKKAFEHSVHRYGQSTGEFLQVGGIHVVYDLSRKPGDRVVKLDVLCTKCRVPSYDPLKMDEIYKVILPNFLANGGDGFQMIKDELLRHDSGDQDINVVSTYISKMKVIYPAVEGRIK
The experiment in a line: enzyme inhibition; right table.

In experiment [4] the target is T3, CD73 on the surface of human tumor cells (human, UniProt P21589 27-549).
T3 chain: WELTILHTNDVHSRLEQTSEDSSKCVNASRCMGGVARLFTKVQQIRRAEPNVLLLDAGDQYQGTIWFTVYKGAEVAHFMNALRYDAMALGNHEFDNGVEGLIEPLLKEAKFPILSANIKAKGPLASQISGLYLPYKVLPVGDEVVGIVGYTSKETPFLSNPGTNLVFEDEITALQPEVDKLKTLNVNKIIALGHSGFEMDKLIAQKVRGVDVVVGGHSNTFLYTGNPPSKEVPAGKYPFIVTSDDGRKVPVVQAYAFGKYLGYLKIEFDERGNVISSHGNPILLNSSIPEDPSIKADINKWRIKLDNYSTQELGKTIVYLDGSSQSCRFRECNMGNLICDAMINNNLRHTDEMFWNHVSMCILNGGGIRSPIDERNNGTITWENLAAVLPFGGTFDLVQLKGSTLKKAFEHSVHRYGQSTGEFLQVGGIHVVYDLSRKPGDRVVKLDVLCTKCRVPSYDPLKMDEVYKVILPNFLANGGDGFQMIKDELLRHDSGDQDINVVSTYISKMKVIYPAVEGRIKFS
The experiment in a line: FACS; NCI-H1299 cells, right table. On the technique in general: Flow cytometry measures light scatter and fluorescence of single cells or particles in a stream.

In experiment [5] the target is T3, CD73 on the surface of human tumor cells. The experiment in a line: FACS; MDA-MB-231 cells, right table.
The target of experiment [6] is T1, extracellular domain of human CD73 …. The experiment in a line: enzyme inhibition; left table.
Experiment [7] deals with T2, Carbon-terminal polyhistidine-labeled …. The experiment in a line: enzyme inhibition; left table.
The target of experiment [8] is T3, CD73 on the surface of human tumor cells. In words: FACS; MDA-MB-231 cells, left table.
Experiment [9] shares this target. In words: FACS; NCI-H1299 cells, left table.
For experiment [10] the target is unchanged. The experiment in a line: FACS; NCI-H1299 cells, right table.
The target is the same in experiment [11]. The experiment in a line: FACS; MDA-MB-231 cells, right table.
For experiment [12] the target is unchanged. The experiment in a line: inhibition of cell-surface CD73 enzyme activity; right panel.
For experiment [13] the target is unchanged. In words: FACS; NCI-H1299 cells, left table.
Experiment [14] has the same target. In words: FACS; MDA-MB-231 cells, left table.
Experiment [15] shares this target. The experiment in a line: inhibition of cell-surface CD73 enzyme activity; left panel.

Numbering of substitutions follows the chain as printed. “And” between values parts separate entries of the source, which are not always exact repeats. Equal entries are not always repeated.

B1: Hu001c-31 (antibody, V domains shown)
VH: QVQLVQSGAEVKKPGASVKVSCKASGYTFTNYYIYWVRQAPGQRLEWIGWIYPGNLNIKYNEKFKGRSTLTADKSASTAYMELSSLRSEDTAVYYCARDDNYAWFAYWGQGTLVTVSS
VL: DIQMTQSPSSLSASVGDRVTITCKASQDVSTAVAWYQQKPGKAPKLLIYWTNTRHTGVPSRFSGSGSGTDHTLTISSLQPEDFATYYCQQHYSTPFTFGQGTKLEIK
As to B1, the EC50 in experiment [1] came to 0.109 nM; in [4] it was 1.24 nM; in [5] it was 0.514 nM. Further, the IC50 in experiment [2] stood at 0.12 nM; in [3], 0.28 nM.

B2: Hu001c-32 (antibody, V domains shown)
VH: B1 VH with R38K, A40R
VL: B1 VL
With B2, the values for the EC50 in experiment [1], in experiment [4] and in experiment [5] were 0.107 nM, 1.62 nM and 0.608 nM, respectively. The figures for the IC50 in [2] and in experiment [3] were 0.07 nM and 0.11 nM, respectively.

B3: Hu001c-30 (antibody, V domains shown)
VH: B1 VH with R38K, A40R
VL: B1 VL with H71F
With B3, the EC50 stood at 0.139 nM in experiment [1], 1.61 nM in [4] and 0.695 nM in [5]. Besides, the values for the concentration for half-maximal inhibition (IC50) in experiment [2] and in experiment [3] were 0.128 nM and 0.132 nM, respectively.

B4: Hu001c-21 (antibody, V domains shown)
VH: B1 VH with S68V, L70I
VL: B1 VL
Consider B4, for which the concentration for a half-maximal effect (EC50) in experiment [1] is 0.02 nM; in experiment [8] it was 0.205 nM. The values for the IC50 in [6] and in [7] were 0.12 nM and 0.37 nM, respectively.

B5: Hu001c-22 (antibody, V domains shown)
VH: B1 VH with R38K, A40R, S68V, L70I
VL: B1 VL
Take B5: the 50% effective concentration (EC50) is 0.032 nM in experiment [1], 1.42 nM in experiment [9] and 0.522 nM in experiment [8]. For the same molecule, the half-maximal inhibitory concentration (IC50) stood at 0.03 nM in [6] and 0.08 nM in experiment [7].

B6: Hu001c-25 (antibody, V domains shown)
VH: B1 VH with S68V, L70I
VL: B1 VL with A43S
In the case of B6, the EC50 was 0.033 nM in [1] and 0.435 nM in experiment [8]. For the same molecule, the half-inhibitory concentration (IC50) worked out at 0.3 nM in experiment [6] and 0.34 nM in experiment [7].

B7: Hu001c-28 (antibody, V domains shown)
VH: B1 VH with A24T, R38K, A40R, R44G, S68V, L70I
VL: B1 VL with A43S
B7: the EC50 was 0.037 nM in experiment [1], 1.41 nM in experiment [9] and 0.446 nM in experiment [8]. In addition, the IC50 in experiment [6] and in experiment [7] was 0.03 nM in each case.

B8: Hu001c-14 (antibody, V domains shown)
VH: B1 VH with A24T, I48M, S68V, L70I, K74T
VL: B1 VL
Take B8: the 50% effective concentration (EC50) in experiment [1] was 0.108 nM; in experiment [9], 1.33 nM; in experiment [4] it was 1.16 nM; in [8], 0.449 nM; in [5], 0.626 nM. In addition, the half-inhibitory concentration (IC50) in experiment [6] worked out at 0.06 nM; in [7], 0.11 nM; in experiment [2] it was 0.06 nM; in [3] it was 0.1 nM.

B9: Hu001c-24 (antibody, V domains shown)
VH: B1 VH with A24T, R38K, A40R, R44G, S68V, L70I
VL: B1 VL
Regarding B9, the EC50 in experiment [1] came out at 0.026 nM; in [9] it was 1.28 nM; in experiment [8], 0.432 nM. Further, the IC50 stood at 0.02 nM in [6], 0.04 nM in [7], 0.03 nM in experiment [2] and 0.04 nM in experiment [3].

B10: Hu002c-11 (antibody, V domains shown)
VH: QVQLVQSGAEVKKPGASVKVSCKASGYTLTSYWMHWVRQAPGQGLEWIGEINPSQGRSNYNEKFKSKVTLTVDRSTSTVYMELSSLRSEDTAVYYCARRGVSGNYFDYWGQGTLVTVSS
VL: DIQMTQSPSSLSASVGDRVTITCKASQDINTYLSWFQQKPGKSPKSLIYRSNILVSGVPSRFSGSGSGQDYTLTISSLQPEDFATYYCLQYDEFPYTFGGGTKLEIK
As to B10, the concentration giving a half-maximal response (EC50) in experiment [1] came out at 0.095 nM; in experiment [10], 0.774 nM; in experiment [11], 0.693 nM. Further, the 50% inhibitory concentration (IC50) amounted to 0.06 nM in experiment [2], 0.065 nM in experiment [3] and 0.445 nM in [12].

B11: mAb002c-VH-QG/VK-SG (antibody, V domains shown)
VH: QVQLQQPGAELVKPGASVRLSCKASGYTLTSYWMHWVKKRPGQGLEWIGEINPSQGRSNYNEKFKSKATLTVDRSSSTVYMQLGSLTSEDSAVYYCARRGVSGNYFDYWGQGTTLTVSS
VL: DIKMTQSPSSMYASLGERVTMTCKASQDINTYLSWFQQKPGKSPKTLIYRSNILVSGVPSRFSGSRSGQDYYLTITSLEYEDMGIYYCLQYDEFPYTFGGGTKLELK
Take B11: the concentration for a half-maximal effect (EC50) is 0.096 nM and 0.103 nM in experiment [1]; 0.73 nM in [13]; 0.573 nM in experiment [10]; 0.557 nM in [14]; 0.557 nM in experiment [11]. The half-maximal inhibitory concentration (IC50) in [7] was determined as 0.044 nM; in [3], 0.055 nM; in experiment [15] it was 0.448 nM; in [12], 0.429 nM.
